In this series the test system is 30S ribosomal subunit (with S1). As to the kind of experiment: filter binding. To be noted: no initiator tRNA; Not given in the material for EMSA, SPR and filter binding (buffer with monovalent ions and MgCl2; RNA renatured 90°C 1 min, ice, then 25°C 30 min).

By Kd is commonly meant the constant that tells how readily two partners part at equilibrium. A high value points to weaker binding. Turning to rpsO mRNA, the Kd is 1000 nM.

rpsOSD mRNA had a binding signal (fold higher affinity than WT rpsO) of 5.

As for sodB mRNA, the Kd stood at 1000 nM.

In turn, thrS mRNA showed a Kd of 1000 nM.

Regarding thrSSD mRNA, the binding signal (fold higher affinity than WT thrS) stood at 5.
